Measurements as given in patent US20030180895A1.

Assays:
Experiment in all cases: cell-based or functional assay
[1] = target: Bacillus subtilis xylanase A mutant N114K (Bacillus subtilis) (UniProt P18429)
[2] = target: Bacillus subtilis xylanase A mutant Y113K (Bacillus subtilis) (UniProt P18429)
[3] = target: Bacillus subtilis xylanase A mutant N114A (Bacillus subtilis) (UniProt P18429)
[4] = target: Bacillus subtilis xylanase A mutant G34D (Bacillus subtilis) (UniProt P18429)
[5] = target: Bacillus subtilis xylanase A mutant G120F (Bacillus subtilis) (UniProt P18429)
[6] = target: Bacillus subtilis xylanase A mutant Y113A (Bacillus subtilis) (UniProt P18429)
[7] = target: Bacillus subtilis xylanase A mutant N29D (Bacillus subtilis) (UniProt P18429)
[8] = target: Bacillus subtilis xylanase A mutant N114D (Bacillus subtilis) (UniProt P18429)
[9] = target: Bacillus subtilis xylanase A mutant Q175E (Bacillus subtilis) (UniProt P18429)
[10] = target: Bacillus subtilis xylanase A mutant D11Y (Bacillus subtilis) (UniProt P18429)
[11] = target: Bacillus subtilis xylanase A mutant D11F (Bacillus subtilis) (UniProt P18429)
[12] = target: Bacillus subtilis xylanase A mutant D119N (Bacillus subtilis) (UniProt P18429)
[13] = target: Bacillus subtilis xylanase A mutant T124Y (Bacillus subtilis) (UniProt P18429)
[14] = target: Bacillus subtilis xylanase A mutant T123Y (Bacillus subtilis) (UniProt P18429)
[15] = target: Bacillus subtilis xylanase A mutant G120D (Bacillus subtilis) (UniProt P18429)
[16] = target: Bacillus subtilis xylanase A mutant N29K (Bacillus subtilis) (UniProt P18429)
[17] = target: Bacillus subtilis xylanase A mutant D11F/R122D (Bacillus subtilis) (UniProt P18429)
[18] = target: Bacillus subtilis xylanase A mutant R122F (Bacillus subtilis) (UniProt P18429)
[19] = target: Bacillus subtilis xylanase A mutant N17D (Bacillus subtilis) (UniProt P18429)
[20] = target: Bacillus subtilis xylanase A mutant N32K (Bacillus subtilis) (UniProt P18429)
[21] = target: Bacillus subtilis xylanase A mutant T124D (Bacillus subtilis) (UniProt P18429)
[22] = target: Bacillus subtilis xylanase A mutant S31D (Bacillus subtilis) (UniProt P18429)
[23] = target: Bacillus subtilis xylanase A mutant G34F (Bacillus subtilis) (UniProt P18429)
[24] = target: Bacillus subtilis xylanase A mutant G13F (Bacillus subtilis) (UniProt P18429)
[25] = target: Bacillus subtilis xylanase A mutant D11W (Bacillus subtilis) (UniProt P18429)
[26] = target: Bacillus subtilis xylanase A mutant G120K (Bacillus subtilis) (UniProt P18429)
[27] = target: Bacillus subtilis xylanase A mutant G34T (Bacillus subtilis) (UniProt P18429)

A Relative inhibition, % at 1, 26 XIU/ml [1] of 87%, a Relative inhibition, % at 3, 15 XIU/ml [1] of 56% and a Relative inhibition, % at 6, 3 XIU/ml [1] of 33% were found for wheat endogenous xylanase inhibitor in this work. For the same substance, the Relative inhibition, % at 12, 6 XIU/ml [1] was 24%, the Relative inhibition, % at 1, 26 XIU/ml [2] was 103% and the Relative inhibition, % at 3, 15 XIU/ml [2] was 85%. It also gave a Relative inhibition, % at 6, 3 XIU/ml [2] of 63%, a Relative inhibition, % at 12, 6 XIU/ml [2] of 47% and a Relative inhibition, % at 1, 26 XIU/ml [3] of 80%. For the same substance, the Relative inhibition, % at 3, 15 XIU/ml [3] was 49%, the Relative inhibition, % at 6, 3 XIU/ml [3] was 28% and the Relative inhibition, % at 12, 6 XIU/ml [3] was 22%. The Relative inhibition, % at 1, 26 XIU/ml [4] was 94%, the Relative inhibition, % at 3, 15 XIU/ml [4] was 83% and the Relative inhibition, % at 6, 3 XIU/ml [4] was 70%. For the same substance, the Relative inhibition, % at 12, 6 XIU/ml [4] was 53%, the Relative inhibition, % at 1, 26 XIU/ml [5] was 71% and the Relative inhibition, % at 3, 15 XIU/ml [5] was 35%. For the same substance, the Relative inhibition, % at 6, 3 XIU/ml [5] was 18%, the Relative inhibition, % at 12, 6 XIU/ml [5] was 15% and the Relative inhibition, % at 1, 26 XIU/ml [6] was 96%. It also gave a Relative inhibition, % at 3, 15 XIU/ml [6] of 80%, a Relative inhibition, % at 6, 3 XIU/ml [6] of 62% and a Relative inhibition, % at 12, 6 XIU/ml [6] of 43%. It also gave a Relative inhibition, % at 1, 26 XIU/ml [7] of 74%, a Relative inhibition, % at 3, 15 XIU/ml [7] of 44% and a Relative inhibition, % at 6, 3 XIU/ml [7] of 26%. For the same substance, the Relative inhibition, % at 12, 6 XIU/ml [7] was 20%, the Relative inhibition, % at 1, 26 XIU/ml [8] was 84% and the Relative inhibition, % at 3, 15 XIU/ml [8] was 57%. The Relative inhibition, % at 6, 3 XIU/ml [8] was 39%, the Relative inhibition, % at 12, 6 XIU/ml [8] was 29% and the Relative inhibition, % at 1, 26 XIU/ml [9] was 87%. It also gave a Relative inhibition, % at 3, 15 XIU/ml [9] of 59%, a Relative inhibition, % at 6, 3 XIU/ml [9] of 40% and a Relative inhibition, % at 12, 6 XIU/ml [9] of 31%. It also gave a Relative inhibition, % at 1, 26 XIU/ml [10] of 120%, a Relative inhibition, % at 3, 15 XIU/ml [10] of 114% and a Relative inhibition, % at 6, 3 XIU/ml [10] of 126%. The Relative inhibition, % at 12, 6 XIU/ml [10] was 124%, the Relative inhibition, % at 1, 26 XIU/ml [11] was 114% and the Relative inhibition, % at 3, 15 XIU/ml [11] was 119%. It also gave a Relative inhibition, % at 6, 3 XIU/ml [11] of 116%, a Relative inhibition, % at 12, 6 XIU/ml [11] of 115% and a Relative inhibition, % at 1, 26 XIU/ml [12] of 91%. It also gave a Relative inhibition, % at 3, 15 XIU/ml [12] of 74%, a Relative inhibition, % at 6, 3 XIU/ml [12] of 44% and a Relative inhibition, % at 12, 6 XIU/ml [12] of 22%. It also gave a Relative inhibition, % at 1, 26 XIU/ml [13] of 101%, a Relative inhibition, % at 3, 15 XIU/ml [13] of 76% and a Relative inhibition, % at 6, 3 XIU/ml [13] of 49%. The Relative inhibition, % at 12, 6 XIU/ml [13] was 33%, the Relative inhibition, % at 1, 26 XIU/ml [14] was 80% and the Relative inhibition, % at 3, 15 XIU/ml [14] was 47%. The Relative inhibition, % at 6, 3 XIU/ml [14] was 28%, the Relative inhibition, % at 12, 6 XIU/ml [14] was 27% and the Relative inhibition, % at 1, 26 XIU/ml [15] was 84%. For the same substance, the Relative inhibition, % at 3, 15 XIU/ml [15] was 47%, the Relative inhibition, % at 6, 3 XIU/ml [15] was 24% and the Relative inhibition, % at 12, 6 XIU/ml [15] was 18%. For the same substance, the Relative inhibition, % at 1, 26 XIU/ml [16] was 83%, the Relative inhibition, % at 3, 15 XIU/ml [16] was 50% and the Relative inhibition, % at 6, 3 XIU/ml [16] was 30%. The Relative inhibition, % at 12, 6 XIU/ml [16] was 23%, the Relative inhibition, % at 1, 26 XIU/ml [17] was 109% and the Relative inhibition, % at 3, 15 XIU/ml [17] was 111%. The Relative inhibition, % at 6, 3 XIU/ml [17] was 110%, the Relative inhibition, % at 12, 6 XIU/ml [17] was 109% and the Relative inhibition, % at 1, 26 XIU/ml [18] was 93%. The Relative inhibition, % at 3, 15 XIU/ml [18] was 74%, the Relative inhibition, % at 6, 3 XIU/ml [18] was 58% and the Relative inhibition, % at 12, 6 XIU/ml [18] was 58%. The Relative inhibition, % at 1, 26 XIU/ml [19] was 90%, the Relative inhibition, % at 3, 15 XIU/ml [19] was 81% and the Relative inhibition, % at 6, 3 XIU/ml [19] was 50%. The Relative inhibition, % at 12, 6 XIU/ml [19] was 22%, the Relative inhibition, % at 1, 26 XIU/ml [20] was 82% and the Relative inhibition, % at 3, 15 XIU/ml [20] was 42%. For the same substance, the Relative inhibition, % at 6, 3 XIU/ml [20] was 19%, the Relative inhibition, % at 12, 6 XIU/ml [20] was 14% and the Relative inhibition, % at 1, 26 XIU/ml [21] was 87%. The Relative inhibition, % at 3, 15 XIU/ml [21] was 52%, the Relative inhibition, % at 6, 3 XIU/ml [21] was 32% and the Relative inhibition, % at 12, 6 XIU/ml [21] was 25%. The Relative inhibition, % at 1, 26 XIU/ml [22] was 79%, the Relative inhibition, % at 3, 15 XIU/ml [22] was 52% and the Relative inhibition, % at 6, 3 XIU/ml [22] was 30%. For the same substance, the Relative inhibition, % at 12, 6 XIU/ml [22] was 24%, the Relative inhibition, % at 1, 26 XIU/ml [23] was 76% and the Relative inhibition, % at 3, 15 XIU/ml [23] was 53%. The Relative inhibition, % at 6, 3 XIU/ml [23] was 34%, the Relative inhibition, % at 12, 6 XIU/ml [23] was 29% and the Relative inhibition, % at 1, 26 XIU/ml [24] was 104%. The Relative inhibition, % at 3, 15 XIU/ml [24] was 95%, the Relative inhibition, % at 6, 3 XIU/ml [24] was 87% and the Relative inhibition, % at 12, 6 XIU/ml [24] was 84%. It also gave a Relative inhibition, % at 1, 26 XIU/ml [25] of 101%, a Relative inhibition, % at 3, 15 XIU/ml [25] of 88% and a Relative inhibition, % at 6, 3 XIU/ml [25] of 70%. The Relative inhibition, % at 12, 6 XIU/ml [25] was 50%, the Relative inhibition, % at 1, 26 XIU/ml [26] was 85% and the Relative inhibition, % at 3, 15 XIU/ml [26] was 52%. For the same substance, the Relative inhibition, % at 6, 3 XIU/ml [26] was 29%, the Relative inhibition, % at 12, 6 XIU/ml [26] was 22% and the Relative inhibition, % at 1, 26 XIU/ml [27] was 99%. It also gave a Relative inhibition, % at 3, 15 XIU/ml [27] of 99%, a Relative inhibition, % at 6, 3 XIU/ml [27] of 93% and a Relative inhibition, % at 12, 6 XIU/ml [27] of 86%.
